Measured values taken from patent US20120178697A9.

Target: PDZ domain (residues 247 through 341) of mouse Dvl-1 (mouse) (UniProt P51141)
Assay: method not stated; called 'experimental data', at 25° C

Substance: Dapper peptide
- Kd: 10 µM
